Assay results as given in publication PMC6662822, “Rational drug-design approach supported with thermodynamic studies — a peptide leader for the efficient bi-substrate inhibitor of protein kinase CK2” (Scientific Reports, 2019).
Where no end group is shown, it is not given here.

Legend:
Conditions in all cases: both partners purified
[1] = target: T1, catalytic subunit of human protein kinase CK2 (human, UniProt P68400 1-391, NT-647 dye (NanoTemper Protein Labeling Kit RED), in the MST experiments only); assay: MST; hCK2α labelled with NT-647 dye, 50 nM; ligand 100 nM-10 mM; thermophoresis with temperature jump; global fit of three independent pseudo-titrations
T1 construct: catalytic subunit (alpha) of human protein kinase CK2; The His tag is named only for the pull-down (immobilised on cobalt resin); also called hCK2α; CK2α

[2] = target: T1, catalytic subunit of human protein …; assay: other fluorescence titration; nanoDSF (Prometheus NT.48): 350 nm/330 nm fluorescence ratio at 25 °C (native protein) against peptide concentration; 2.5 μM hCK2α, peptide 300 nM-10 mM, 25 mM Tris-HCl pH 7, 0.5 M NaCl; single binding site model
[3] = target: T1, catalytic subunit of human protein …; assay: MST; as a6, labelled hCK2α in the presence of TBBt (hCK2α/TBBt complex)
[4] = target: T1, catalytic subunit of human protein …; assay: other fluorescence titration; nanoDSF as a3 (25 °C), hCK2α in the presence of TBBt (hCK2α/TBBt complex)
[5] = target: T1, catalytic subunit of human protein …; assay: other fluorescence titration; nanoDSF as a3, but data at 75 °C: unfolded form of hCK2α

T1 sequence (P68400 whole entry): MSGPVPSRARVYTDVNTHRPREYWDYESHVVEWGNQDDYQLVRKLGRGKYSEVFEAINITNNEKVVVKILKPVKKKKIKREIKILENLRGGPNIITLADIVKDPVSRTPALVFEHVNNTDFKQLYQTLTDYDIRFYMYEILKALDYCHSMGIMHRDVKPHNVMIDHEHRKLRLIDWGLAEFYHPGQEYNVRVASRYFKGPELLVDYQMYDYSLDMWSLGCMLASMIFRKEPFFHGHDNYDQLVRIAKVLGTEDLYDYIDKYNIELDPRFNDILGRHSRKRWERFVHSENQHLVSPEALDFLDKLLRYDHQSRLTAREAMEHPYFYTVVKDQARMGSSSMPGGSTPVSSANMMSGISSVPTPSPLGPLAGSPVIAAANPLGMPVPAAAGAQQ

Binder | Kd [1] | Kd [2] | Kd [3] | Kd [4] | Kd [5]
RRRDDDSDDD (The supplier is named in the methods of the kinase assay; also called CK2 substrate peptide; source: bought: Biaffin GmbH & Co KG) | 2100 ± 700 µM | – | – | – | –
EETEEE-NH2 (source: synthetic peptide (solid-phase synthesis, purified by HPLC); in the pull-down as a member of the synthetic library) [EETEEE-NH2] | – | 960 ± 30 µM | – | – | –
KESEEE-NH2 (source: synthetic peptide (solid-phase synthesis, purified by HPLC)) [KESEEE-NH2] | 390 ± 210 µM | 350 ± 20 µM | 360 ± 230 µM | 450 ± 20 µM | ~1000 µM
KETEEE-NH2 (source: synthetic peptide (solid-phase synthesis, purified by HPLC); in the pull-down as a member of the synthetic library) [KETEEE-NH2] | – | 950 ± 50 µM | – | – | –
EESEEE-NH2 (source: synthetic peptide (solid-phase synthesis, purified by HPLC); in the pull-down as a member of the synthetic library) [EESEEE-NH2] | – | 1580 ± 60 µM | – | – | –
